The results in this text go back to publication PMC7515630, “Optogenetic activation of heterotrimeric G-proteins by LOV2GIVe, a rationally engineered modular protein” (eLife, 2020).

This assay concerns the target T1, GST-LOV2GIV (L) (Avena sativa | , FMN chromophore. GST omitted. The exact sequence and junction are in Supplementary file 1, so limits are by convention: AsLOV2 404-546 and the UniProt GBA motif. The paper's GIV numbering is the displ).
T1 chain: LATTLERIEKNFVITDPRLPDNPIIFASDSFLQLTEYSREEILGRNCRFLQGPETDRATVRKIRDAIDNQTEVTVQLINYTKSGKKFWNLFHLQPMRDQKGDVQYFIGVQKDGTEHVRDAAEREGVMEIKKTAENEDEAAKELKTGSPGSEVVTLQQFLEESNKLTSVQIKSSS
In words: pull-down; ~20 µg purified GST-fused construct on glutathione-agarose beads, 3 µg (~300 nM) purified His-tagged Gα; 4 hr at 4°C in 50 mM Tris-HCl pH 7.4, 100 mM NaCl, 0.4% NP-40, 10 mM MgCl2, 5 mM EDTA, 1 mM DTT, 30 µM GDP; immunoblot for His. As to conditions: both partners purified. Background: A western blot detects proteins with antibodies after separation by electrophoresis.

B1: His-Gαi3 (rat) (natural protein, UniProt P08753 1-354, looked up)
chain: MGCTLSAEDKAAVERSKMIDRNLREDGEKAAKEVKLLLLGAGESGKSTIVKQMKIIHEDGYSEDECKQYKVVVYSNTIQSIIAIIRAMGRLKIDFGEAARADDARQLFVLAGSAEEGVMTSELAGVIKRLWRDGGVQACFSRSREYQLNDSASYYLNDLDRISQTNYIPTQQDVLRTRVKTTGIVETHFTFKELYFKMFDVGGQRSERKKWIHCFEGVTAIIFCVALSDYDLVLAEDEEMNRMHESMKLFDSICNNKWFTDTSIILFLNKKDLFEEKIKRSPLTICYPEYTGSNTYEEAAAYIQCQFEDLNRRKDTKEVYTHFTCATDTKNVQFVFDAVTDVIIKNNLKECGLY
notes: rat Gαi3, G-protein alpha subunit i3; kept with GDP in the buffers; also called pET28b-Gαi3; source: E. coli BL21(DE3), purified (HisPur cobalt resin, desalting)
Consider B1, for which the “fold binding over the dark conformation, LOV2GIV (D)” value was roughly 3 fold.
